Results on two molecules are retold here after publication PMC6527160.

The target in data set [1] is T1, LASV L protein Strep407 (Lassa virus Bantou 289, UniProt A0A3S8NV63 1-2217). The data set is described as follows: EMSA; 0-1 uM L, 0.6 uM RNA; 4 mM Mg2+; […]) pH 7.0, 150 mM NaCl ([…]. Particulars: protein: recombinant; tags: internal StrepII-tag inserted after residue 407; chain copies: 2; label: 32P (5' end, T4 PNK); single strand. (In general: In EMSA bound probe runs differently from free probe, usually more slowly.)

For data set [2], the target named is T1, LASV L protein Strep407. The data set is described as follows: EMSA; […]) pH 7.0, 150 mM NaCl ([…]. To be noted: protein: recombinant; tags: internal StrepII-tag inserted after residue 407; chain copies: 2; label: 32P (5' end, T4 PNK); single strand.

Take CGCACCGGGGAUCCUAGGC (ssRNA) [vRNA 5']: the binding result with LASV L protein Strep407 [1] was “binds”.
In the case of GCGCACCGGGGAUCCUAGGC (ssRNA) [vRNA 5'G], the binding result with LASV L protein Strep407 [2] is “binds”.
